In patent US11292821B2, “Peptides and combination of peptides for use in immunotherapy against lung cancer, including NSCLC, SCLC and other cancers” (Immatics Biotechnologies GmbH, priority 2017, dated 2022):

Experiments:
HLA-B*07 = HLA-B*07 (Homo sapiens, UniProt P01889); test: MHC binding assay (UV-ligand exchange, β2m ELISA)
Text: Candidate peptides for T cell based therapies according to the present invention were further tested for their MHC binding capacity (affinity). The individual peptide-MHC complexes were produced by UV-ligand exchange, where a UV-sensitive peptide is cleaved upon UV-irradiation, and exchanged with the peptide of interest as analyzed. Only peptide candidates that can effectively bind and stabilize the peptide-receptive MHC molecules prevent dissociation of the MHC complexes. To determine the yield of the exchange reaction, an ELISA was performed based on the detection of the light chain (β2m) of stabilized MHC complexes. The assay was performed as generally described in Rodenko et al. (Rodenko et al., 2006).
96 well MAXISorp plates (NUNC) were coated over night with 2 ug/ml streptavidin in PBS at room temperature, washed 4× and blocked for 1 h at 37° C. in 2% BSA containing blocking buffer. […] Peptide-MHC monomers of the UV-exchange reaction were diluted 100-fold in blocking buffer. Samples were incubated for 1 h at 37° C., washed four times, incubated with 2 ug/ml HRP conjugated anti-β2m for 1h at 37° C., washed again and detected with TMB solution that is stopped with […]. Absorption was measured at 450 nm. Candidate peptides that show a high exchange yield (preferably higher than 50%, most preferred higher than 75%) are generally preferred for a generation and production of antibodies or fragments thereof, and/or T cell receptors or fragments thereof, as they show sufficient avidity to the MHC molecules and prevent dissociation of the MHC complexes.

CD8+ T cells = test: In vitro T-cell priming assay with aAPCs (in vitro immunogenicity for MHC class I presented peptides); type: cell-based, human; settings: in vitro immunogenicity, HLA B*07
HLA-B*44 = test: MHC binding assay (UV-ligand exchange, β2m ELISA); design: species or system human; settings: UV-ligand exchange, β2m ELISA

220 (SPSVSQLSVL; listed as Homo sapiens) [compound 220]
Peptide exchange (peptide exchange yield, MHC class I binding score) (HLA-B*07): “++++” (>75% = ++++)
Wells positive [%] (CD8+ T cells): “++++” (>=70% = ++++)

221 (VPDVAQFVL; listed as Homo sapiens) [compound 221]
Peptide exchange (peptide exchange yield, MHC class I binding score) (HLA-B*07): “++++” (>75% = ++++)
Wells positive [%] (CD8+ T cells): “++” (20%-49% = ++)

222 (NPFYPEVEL; listed as Homo sapiens) [compound 222]
Peptide exchange (peptide exchange yield, MHC class I binding score) (HLA-B*07): “+++” (>50 = +++)
Wells positive [%] (CD8+ T cells): “+” (<20% = +)

223 (YPKDIYSSF; listed as Homo sapiens) [compound 223]
Peptide exchange (peptide exchange yield, MHC class I binding score) (HLA-B*07): “++++” (>75% = ++++)
Wells positive [%] (CD8+ T cells): “++” (20%-49% = ++)

224 (GPQPWHAAL; listed as Homo sapiens) [compound 224]
Peptide exchange (peptide exchange yield, MHC class I binding score) (HLA-B*07): “++++” (>75% = ++++)
Wells positive [%] (CD8+ T cells): “++” (20%-49% = ++)

225 (LPFDGPGGIL; listed as Homo sapiens) [compound 225]
Peptide exchange (peptide exchange yield, MHC class I binding score) (HLA-B*07): “++++” (>75% = ++++)
Wells positive [%] (CD8+ T cells): “++++” (>=70% = ++++)

226 (SPRMSGLLSQT; listed as Homo sapiens) [compound 226]
Peptide exchange (peptide exchange yield, MHC class I binding score) (HLA-B*07): “++++” (>75% = ++++)
Wells positive [%] (CD8+ T cells): “+++” (50%-69% = +++)

228 (YPRGNHWAVGHL; listed as Homo sapiens) [compound 228]
Peptide exchange (peptide exchange yield, MHC class I binding score) (HLA-B*07): “++++” (>75% = ++++)
Wells positive [%] (CD8+ T cells): “++” (20%-49% = ++)

231 (RPRALRDLQL; listed as Homo sapiens) [compound 231]
Peptide exchange (peptide exchange yield, MHC class I binding score) (HLA-B*07): “++++” (>75% = ++++)
Wells positive [%] (CD8+ T cells): “++” (20%-49% = ++)

232 (RPRALRDLQLL; listed as Homo sapiens) [compound 232]
Peptide exchange (peptide exchange yield, MHC class I binding score) (HLA-B*07): “++++” (>75% = ++++)
Wells positive [%] (CD8+ T cells): “+++” (50%-69% = +++)

233 (KPYQGNPTF; listed as Homo sapiens) [compound 233]
Peptide exchange (peptide exchange yield, MHC class I binding score) (HLA-B*07): “++++” (>75% = ++++)
Wells positive [%] (CD8+ T cells): “+” (<20% = +)

237 (RPAATAVISL; listed as Homo sapiens) [compound 237]
Peptide exchange (peptide exchange yield, MHC class I binding score) (HLA-B*07): “+++” (>50 = +++)
Wells positive [%] (CD8+ T cells): “+” (<20% = +)

241 (SARLATDAL; listed as Homo sapiens) [compound 241]
Peptide exchange (peptide exchange yield, MHC class I binding score) (HLA-B*07): “++++” (>75% = ++++)
Wells positive [%] (CD8+ T cells): “+++” (50%-69% = +++)

242 (SPRWLPVSL; listed as Homo sapiens) [compound 242]
Peptide exchange (peptide exchange yield, MHC class I binding score) (HLA-B*07): “++++” (>75% = ++++)
Wells positive [%] (CD8+ T cells): “++++” (>=70% = ++++)

244 (FPYVRDFVM; listed as Homo sapiens) [compound 244]
Peptide exchange (peptide exchange yield, MHC class I binding score) (HLA-B*07): “++++” (>75% = ++++)
Wells positive [%] (CD8+ T cells): “+” (<20% = +)

245 (RIREHVPQL; listed as Homo sapiens) [compound 245]
Peptide exchange (peptide exchange yield, MHC class I binding score) (HLA-B*07): “+++” (>50 = +++)
Wells positive [%] (CD8+ T cells): “++” (20%-49% = ++)

248 (IPNWARQDL; listed as Homo sapiens) [compound 248]
Peptide exchange (peptide exchange yield, MHC class I binding score) (HLA-B*07): “++++” (>75% = ++++)
Wells positive [%] (CD8+ T cells): “++++” (>=70% = ++++)

249 (VPSSRILQL; listed as Homo sapiens) [compound 249]
Peptide exchange (peptide exchange yield, MHC class I binding score) (HLA-B*07): “++++” (>75% = ++++)
Wells positive [%] (CD8+ T cells): “+++” (50%-69% = +++)

250 (SPRDFLSGL; listed as Homo sapiens) [compound 250]
Peptide exchange (peptide exchange yield, MHC class I binding score) (HLA-B*07): “++++” (>75% = ++++)
Wells positive [%] (CD8+ T cells): “+” (<20% = +)

252 (SPDIRNTTV; listed as Homo sapiens) [compound 252]
Peptide exchange (peptide exchange yield, MHC class I binding score) (HLA-B*07): “++++” (>75% = ++++)
Wells positive [%] (CD8+ T cells): “+” (<20% = +)

274 (TPYQEHVAL; listed as Homo sapiens) [compound 274]
Peptide exchange (peptide exchange yield, MHC class I binding score) (HLA-B*07): “+++” (>50 = +++)
Wells positive [%] (CD8+ T cells): “+” (<20% = +)

285 (FPSFLTNSL; listed as Homo sapiens) [compound 285]
Peptide exchange (peptide exchange yield, MHC class I binding score) (HLA-B*07): “++++” (>75% = ++++)
Wells positive [%] (CD8+ T cells): “++++” (>=70% = ++++)

292 (SPQRLRGLLL; listed as Homo sapiens) [compound 292]
Peptide exchange (peptide exchange yield, MHC class I binding score) (HLA-B*07): “+++” (>50 = +++)
Wells positive [%] (CD8+ T cells): “+++” (50%-69% = +++)

293 (RPRSALPRLLLP; listed as Homo sapiens) [compound 293]
Peptide exchange (peptide exchange yield, MHC class I binding score) (HLA-B*07): “++++” (>75% = ++++)
Wells positive [%] (CD8+ T cells): “++” (20%-49% = ++)

294 (GPTPNTGAAL; listed as Homo sapiens) [compound 294]
Peptide exchange (peptide exchange yield, MHC class I binding score) (HLA-B*07): “++++” (>75% = ++++)
Wells positive [%] (CD8+ T cells): “+++” (50%-69% = +++)

319 (AEMLERVIKNY; listed as Homo sapiens) [compound 319]
Peptide exchange (peptide exchange yield, MHC class I binding score) (HLA-B*44): “++++” (>75% = ++++)

321 (AEMLESVIKNY; listed as Homo sapiens) [compound 321]
Peptide exchange (peptide exchange yield, MHC class I binding score) (HLA-B*44): “+++” (>50 =+++)

324 (TDSIHAWTF; listed as Homo sapiens) [compound 324]
Peptide exchange (peptide exchange yield, MHC class I binding score) (HLA-B*44): “+++” (>50 =+++)

327 (YEIEARNQVF; listed as Homo sapiens) [compound 327]
Peptide exchange (peptide exchange yield, MHC class I binding score) (HLA-B*44): “+++” (>50 =+++)

332 (MEVPVIKI; listed as Homo sapiens) [compound 332]
Peptide exchange (peptide exchange yield, MHC class I binding score) (HLA-B*44): “++” (>20% = ++)

460 (MPMAGDMNGL; listed as Homo sapiens) [compound 460]
Peptide exchange (peptide exchange yield, MHC class I binding score) (HLA-B*07): “++++” (>75% = ++++)
Wells positive [%] (CD8+ T cells): “++” (20%-49% = ++)

462 (RPFHTRATV; listed as Homo sapiens) [compound 462]
Peptide exchange (peptide exchange yield, MHC class I binding score) (HLA-B*07): “++++” (>75% = ++++)
Wells positive [%] (CD8+ T cells): “++” (20%-49% = ++)

463 (TPKAGPTL; listed as Homo sapiens) [compound 463]
Peptide exchange (peptide exchange yield, MHC class I binding score) (HLA-B*07): “++++” (>75% = ++++)
Wells positive [%] (CD8+ T cells): “+” (<20% = +)

464 (YPRPGTPAA; listed as Homo sapiens) [compound 464]
Peptide exchange (peptide exchange yield, MHC class I binding score) (HLA-B*07): “++++” (>75% = ++++)

465 (VPRPIFSQL; listed as Homo sapiens) [compound 465]
Peptide exchange (peptide exchange yield, MHC class I binding score) (HLA-B*07): “++++” (>75% = ++++)

466 (APYKSVTSL; listed as Homo sapiens) [compound 466]
Peptide exchange (peptide exchange yield, MHC class I binding score) (HLA-B*07): “++++” (>75% = ++++)

467 (KPFSSFTSM; listed as Homo sapiens) [compound 467]
Peptide exchange (peptide exchange yield, MHC class I binding score) (HLA-B*07): “++++” (>75% = ++++)

468 (SPMYGQAGL; listed as Homo sapiens) [compound 468]
Peptide exchange (peptide exchange yield, MHC class I binding score) (HLA-B*07): “++++” (>75% = ++++)

469 (YPENGVVQM; listed as Homo sapiens) [compound 469]
Peptide exchange (peptide exchange yield, MHC class I binding score) (HLA-B*07): “++” (>20% = ++)

470 (SPNSYFRVL; listed as Homo sapiens) [compound 470]
Peptide exchange (peptide exchange yield, MHC class I binding score) (HLA-B*07): “++++” (>75% = ++++)

471 (KPRPDVTNEL; listed as Homo sapiens) [compound 471]
Peptide exchange (peptide exchange yield, MHC class I binding score) (HLA-B*07): “++++” (>75% = ++++)

472 (NPRATDAQL; listed as Homo sapiens) [compound 472]
Peptide exchange (peptide exchange yield, MHC class I binding score) (HLA-B*07): “++++” (>75% = ++++)

473 (LPRALLSSL; listed as Homo sapiens) [compound 473]
Peptide exchange (peptide exchange yield, MHC class I binding score) (HLA-B*07): “++++” (>75% = ++++)
Wells positive [%] (CD8+ T cells): “++” (20%-49% = ++)

474 (LPRLLPAL; listed as Homo sapiens) [compound 474]
Peptide exchange (peptide exchange yield, MHC class I binding score) (HLA-B*07): “++++” (>75% = ++++)
Wells positive [%] (CD8+ T cells): “+++” (50%-69% = +++)

475 (RPHKPGLYL; listed as Homo sapiens) [compound 475]
Peptide exchange (peptide exchange yield, MHC class I binding score) (HLA-B*07): “++++” (>75% = ++++)
